Data published in EP4725507A1, “POLYPEPTIDE CONJUGATE, PHARMACEUTICAL COMPOSITION CONTAINING POLYPEPTIDE CONJUGATE AND USE THEREOF” (Nanjing Anji Biotechnology Co., Ltd., priority 2023, dated 2025).
≈ marks a conversion by molar mass, not a printed value. Where two headings read alike, the source gives them in different places. Peptide text beside a SMILES is read from it. * marks the point of attachment. Paclitaxel(2'-O-succinyl) = CC(=O)O[C@H]1C(=O)[C@@]2(C)[C@H]([C@H](OC(=O)c3ccccc3)[C@]3(O)C[C@H](OC(=O)[C@H](OC(=O)CCC(=O)*)[C@@H](NC(=O)c4ccccc4)c4ccccc4)C(C)=C1C3(C)C)[C@]1(OC(C)=O)CO[C@@H]1C[C@@H]2O

Assays:
[1] = Metabolism in liver microsomes; format: in vitro ADME; conditions: for k / microsomal CLint at 1 µM / half-life at 1 µM: NADPH, 37°C; for microsomal CLint at 1 µM: read-out: CLint(mic); for half-life at 1 µM: read-out: t½
Experimental: 1.85 mg of DOC-AI (or 1.81 mg of PTX-AI) was precisely weighed, 1 mL of DMSO was added, dissolved and mixed well to obtain 1 mM stock solution. 1 mM stock solution was diluted with methanol to 100 µM working solution for sample incubation. 12.5 µL of 20 mg/mL liver microsomes (mouse-derived, Shanghai Quanyang Trading Co., Ltd., batch number: MIC255038; rat-derived, Shanghai Quanyang Trading Co., Ltd., batch number: MIC254034; dog-derived, Shanghai Quanyang Trading Co., Ltd., batch number: MIC257015; monkey-derived, Ruide Liver Disease Research (Shanghai) Co., Ltd., batch number: SYXS; human-derived, Shanghai Quanyang Trading Co., Ltd., batch number: 1210097), 432.5 µL of 100 mM PBS, 25 µL of 20 mM NADPH, and 25 µL of 100 mM MgCl2 were added into a 96-well plate, and after mixing, pre-incubated at 37°C for 5 min. 5 µL of 100 µM working solution was added to the 96-well plate to initiate the reaction. At the set time points, 50 µL of the reaction sample was taken and placed in an EP tube containing 100 µL of ice-cold acetonitrile, vortexed for inactivation, and stored at -90°C for testing. […] Table 4 Results of detection of DOC-AI metabolism in liver microsomes

[2] = test system: HCCLM3 (human highly metastatic hepatocellular carcinoma cells); experiment: Tumor cell proliferation inhibition (CCK8); format: cell-based; conditions: IC50 of free drug / IC50 of polypeptide conjugate
Text: (§1) Human highly metastatic hepatocellular carcinoma cells HCCLM3, human highly metastatic gastric cancer cells MKN45, human gastric cancer cells BGC-823 and MGC-803, non-small cell lung cancer cells A549, human pancreatic cancer cells ASPC-1, human colon cancer cells LoVo, human ovarian cancer cells A2780, human cervical cancer cells SiHa, human malignant melanoma cells SK-mel-2 and M14, human osteosarcoma cells Saos-2, human bladder transitional cell carcinoma cells T24, human brain glioblastoma cells U87-MG, human lymphoma cells Raji, and human epidermal cancer cells A431 were selected for the experiment. Among them, HCCLM3 cells, MKN45 cells, BGC-823 cells, MGC-803 cells, A431 cells and A549 cells were provided by Nanjing Anji Biotechnology Co., Ltd., and the other cells were provided by Nanjing Ouji Pharmaceutical Technology Service Co., Ltd.
(§2) The aforementioned tumor cells were preserved in a medium containing 10% fetal bovine serum and 1% penicillin-streptomycin, and incubated at 37°C with 5% CO2 and 95% humidity. The aforementioned tumor cells were cultured in T75 flasks with an experimental cell density of 80%. The aforementioned tumor cell lines were mycoplasma-negative.
(§3) Tumor cells in the logarithmic growth phase were taken for the experiment. The cells were digested, counted, and prepared into a cell suspension with a concentration of 1×10^5 cells/mL, which was then inoculated into a 96-well plate (100 µL per well). The 96-well plate was incubated in a 37°C, 5% CO2 incubator for 24 hours. […] After incubating the plate in the incubator for 72 h, the cell morphology of each group was observed under a microscope. Then, 10 µL of CCK8 solution (Nanjing Enjing Biotechnology Co., Ltd.) was added to each well, and the plate was further incubated in the cell incubator for 4 h. After incubation, the absorbance was measured at 450 nm, and the tumor cell proliferation inhibition rate was calculated. The efficiency ratio was the ratio of the IC50 value of the free drug to that of the polypeptide conjugate. Table 1 Tumor cell proliferation inhibition rates of polypeptide conjugates

[3] = test system: A549 (non-small cell lung cancer cells); experiment: Tumor cell proliferation inhibition (CCK8); format: cell-based; conditions: IC50 of free drug / IC50 of polypeptide conjugate
Text: as §1, §2, §3

[4] = Solubility in water (HPLC, saturated solution); format: physicochemical; conditions: for solubility thermodynamic at 15 min: in water (ultrapure), HPLC; for Fold Increase: solubility in water of the conjugate versus the free drug (DOC or PTX)
Experimental: 25, 50, 100, 200, 300, and 400 µL of the above stock solutions were precisely measured, added into 1 mL volumetric flasks, and diluted to the mark with methanol to obtain a series of standard solutions with concentrations of 25, 50, 100, 200, 300, and 400 µg/mL, respectively. The peak areas of the series of standard solutions were detected by HPLC (mobile phase: 0.065% TFA in water + 0.05% TFA; chromatographic column: YMC-Triart C18; wavelength: 220 nm) to construct a concentration-peak area standard curve, where the abscissa represents concentration and the ordinate represents peak area.
The peak area of the sample was detected by HPLC, and its saturation in water was calculated through the concentration-peak area standard curve. Table 6 Results of detection of solubility of polypeptide conjugates in water

[5] = Human liver microsomes 0.5 mg/mL
[6] = Monkey liver microsomes 0.5 mg/mL
[7] = Mouse liver microsomes 0.5 mg/mL

SMILES	CLint(liver) ([1]; Dog liver microsomes 0.5 mg/mL) [mL/min/kg]	Clearance Rate Level ([1]; Dog liver microsomes 0.5 mg/mL)	Hepatic Extraction Ratio (EH) ([1]; Dog liver microsomes 0.5 mg/mL)	k ([1]; Dog liver microsomes 0.5 mg/mL)	microsomal CLint at 1 µM ([1]; Dog liver microsomes 0.5 mg/mL) [µL/min/mg]	half-life at 1 µM ([1]; Dog liver microsomes 0.5 mg/mL) [min]	CLint(liver) [1, 5] [mL/min/kg]	Clearance Rate Level [1, 5]	Hepatic Extraction Ratio (EH) [1, 5]	k [1, 5]	microsomal CLint at 1 µM [1, 5] [µL/min/mg]	half-life at 1 µM [1, 5] [min]	CLint(liver) [1, 6] [mL/min/kg]	Clearance Rate Level [1, 6]	Hepatic Extraction Ratio (EH) [1, 6]	k [1, 6]	microsomal CLint at 1 µM [1, 6] [µL/min/mg]	half-life at 1 µM [1, 6] [min]	CLint(liver) [1, 7] [mL/min/kg]	Clearance Rate Level [1, 7]	further results
CC(=O)O[C@@]12CO[C@@H]1C[C@H](O)[C@@]1(C)C(=O)[C@H](O)C3=C(C)[C@@H](OC(=O)[C@H](OC(=O)CCC(=O)N[C@@H](CCCNC(=N)N)C(=O)N[C@@H](CO)C(=O)N4CCC[C@H]4C(=O)N[C@@H](Cc4ccc(O)cc4)C(=O)N[C@@H](C)C(=O)N[C@@H](CC(N)=O)C(=O)N[C@@H](CO)C(=O)O)[C@@H](NC(=O)OC(C)(C)C)c4ccccc4)C[C@@](O)([C@@H](OC(=O)c4ccccc4)[C@H]21)C3(C)C [DOC-AI]	66.2	Medium	0.682	0.0230	45.9	30.2	23.4	Medium	0.531	0.0130	26	53.3	140	High	0.763	0.0520	104	13.3	324	High	Hepatic Extraction Ratio (EH) [1, 7]: 0.783; k [1, 7]: 0.0410; microsomal CLint at 1 µM [1, 7]: 81.9 µL/min/mg; half-life at 1 µM [1, 7]: 16.9 min; CLint(liver) ([1]; Rat liver microsomes 0.5 mg/mL): 108 mL/min/kg; Clearance Rate Level ([1]; Rat liver microsomes 0.5 mg/mL): Medium; Hepatic Extraction Ratio (EH) ([1]; Rat liver microsomes 0.5 mg/mL): 0.662; k ([1]; Rat liver microsomes 0.5 mg/mL): 0.0301; microsomal CLint at 1 µM ([1]; Rat liver microsomes 0.5 mg/mL): 60.1 µL/min/mg; half-life at 1 µM ([1]; Rat liver microsomes 0.5 mg/mL): 23.1 min; Efficiency Ratios [2]: 1.63; Efficiency Ratios [3]: 1.39; solubility thermodynamic at 15 min [4]: 4430 µg/mL (≈ 2630 µM); Fold Increase [4]: 1.62×10^5
CC(=O)O[C@H]1C(=O)[C@@]2(C)[C@H]([C@H](OC(=O)c3ccccc3)[C@]3(O)C[C@H](OC(=O)[C@H](OC(=O)CCC(=O)N[C@@H](CCCNC(=N)N)C(=O)N[C@@H](CO)C(=O)N4CCC[C@H]4C(=O)N[C@@H](Cc4ccc(O)cc4)C(=O)N[C@@H](C)C(=O)N[C@@H](CC(N)=O)C(=O)N[C@@H](CO)C(=O)O)[C@@H](NC(=O)c4ccccc4)c4ccccc4)C(C)=C1C3(C)C)[C@]1(OC(C)=O)CO[C@@H]1C[C@@H]2O [PTX-AI] ({Paclitaxel(2'-O-succinyl)}-RSPYANS-OH)	81.4	High	0.725	0.0283	56.6	24.5	26.6	Medium	0.562	0.0148	29.5	46.9	148	High	0.772	0.0548	110	12.7	405	High	Hepatic Extraction Ratio (EH) [1, 7]: 0.818; k [1, 7]: 0.0511; microsomal CLint at 1 µM [1, 7]: 102 µL/min/mg; half-life at 1 µM [1, 7]: 13.6 min; CLint(liver) ([1]; Rat liver microsomes 0.5 mg/mL): 122 mL/min/kg; Clearance Rate Level ([1]; Rat liver microsomes 0.5 mg/mL): Medium; Hepatic Extraction Ratio (EH) ([1]; Rat liver microsomes 0.5 mg/mL): 0.689; k ([1]; Rat liver microsomes 0.5 mg/mL): 0.0339; microsomal CLint at 1 µM ([1]; Rat liver microsomes 0.5 mg/mL): 67.8 µL/min/mg; half-life at 1 µM ([1]; Rat liver microsomes 0.5 mg/mL): 20.4 min; Efficiency Ratios [2]: 3.70; Efficiency Ratios [3]: 2.05; solubility thermodynamic at 15 min [4]: 5.56 µg/mL (≈ 3.21 µM); Fold Increase [4]: 46.33
